Measured values reported in doi:10.1101/196097.

Experiments:
[1] = target: Calcium-independent phospholipase A2β, short variant (SH-iPLA2β), wild type (Chinese hamster (cloned from CHO cells)); experiment: AUC
[2] = target: Fluorescein (FAM)-labeled calmodulin T34C (UniProt P0DP23); experiment: fluorescence polarisation
[3] = target: FAM-labeled synthetic peptide corresponding to the IQ motif of iPLA2β; experiment: fluorescence polarisation
[4] = target: FAM-labeled synthetic peptide corresponding to the 1-9-14 motif of iPLA2β; experiment: fluorescence polarisation

stoichiometry N [1] | Kd [2] | Kd [3] | Kd [4] | Substance
2 | 112 nM | – | – | Calcium-independent phospholipase A2β, short variant (SH-iPLA2β), wild type (from UniProt A0A3L7I2I8 1-807) (enzyme)
– | – | 5900 nM | 2500 nM | Calmodulin (from UniProt P0DP23 1-149) (natural protein)
– | > 1400 nM | – | – | iPLA2β W695E mutant (from UniProt A0A3L7I2I8 1-807) (enzyme)
